# Data from patent publication US20060259987A1 (UNIVERSITY OF UTAH RESEARCH FOUNDATION, published 2006).
# Residue numbers refer to the chain shown, from its start. In names and notes the source's numbering stands.
# T1: human neutrophil cathepsin G (human, UniProt P08311 21-244)
# T1 sequence (looked up): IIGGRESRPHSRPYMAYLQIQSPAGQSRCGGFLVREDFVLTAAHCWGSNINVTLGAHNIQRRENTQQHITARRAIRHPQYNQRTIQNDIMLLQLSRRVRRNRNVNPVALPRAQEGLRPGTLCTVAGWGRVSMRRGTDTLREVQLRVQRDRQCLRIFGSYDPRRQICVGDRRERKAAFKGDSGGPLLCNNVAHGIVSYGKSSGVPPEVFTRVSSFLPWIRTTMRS
# T2: human neutrophil elastase (human, UniProt P08246 30-247, limits assumed)
# T2 sequence (looked up): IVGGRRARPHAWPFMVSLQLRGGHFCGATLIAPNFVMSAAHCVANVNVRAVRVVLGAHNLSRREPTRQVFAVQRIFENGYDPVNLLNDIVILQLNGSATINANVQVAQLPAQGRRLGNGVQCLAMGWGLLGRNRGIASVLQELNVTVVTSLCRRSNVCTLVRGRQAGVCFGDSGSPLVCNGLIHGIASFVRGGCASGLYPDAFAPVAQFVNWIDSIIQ
# B1: 13C.431 (other)
# chain: SPVDICTAKPRDIPMNPMCIYRSPEKKATEDEGSEQKIPEATNRRVWELSKANSRFATTFYQHLADSKNDNDNIFLSPLSISTAFAMTKLGACNDTLQQLMEVFKFDTISEKTSDQIHFFFAKLNCRLYRKANKASKLVSANRLFGDKSLTFNETYQDISELVYGAKLQPLDFKENAEQSRAAINKWVSNKTEGRITDVIPSEAINELTVLVLVNTIYFKGLWKSKFSPENTRKELFYKADGESCSASMMYQEGKFRYRRVAEGTQVLELPFKGDDITMVLILPKPEKSLAKVEKELTPEVLQEWLDELEEMMLVVHMPRFRIEDGFSLKEQLQDMGLVDLFSPEKSKLPGIVAEGRDDLYVSDAFHKAFLEVNEEGSEAAASTELEAAGRSLNPNRVTFKANRPFLVFIREVPLNTIIFMGRVANPCVK
# notes: Made in Drosophila S2 cells (DES) on the S137A background; N-terminus printed as SPVDI---; primer codon CTC gives L
# B2: 13C.435 (other)
# chain: B1 chain with A388W
# notes: Made in Drosophila S2 cells (DES) on the S137A background; N-terminus printed as SPVDI---
# B3: 13C.444 (other)
# chain: B1 chain with A388V, G390P
# modifications: N-linked glycans added by Drosophila S2 cells; not carried by the letters
# notes: as for B2
# B4: 13C.433 (other)
# chain: B1 chain with A388L
# notes: as for B2
# B5: 13C.434 (other)
# chain: B1 chain with A388F
# notes: as for B2
# B6: LEAQ.502 (other)
# chain: B1 chain with E385A, E387S, A389Q
# notes: also called DES.LEAQ.502
# B7: LEAQ.504 (other)
# chain: B1 chain with E385A, E387N, A389Q
# notes: also called DES.LEAQ.504
# B8: LEAQ.506 (other)
# chain: B1 chain with E385A, E387H, A389Q
# notes: also called DES.LEAQ.506
# B9: LEAQ.508 (other)
# chain: B1 chain with E385A, E387K, A389Q
# notes: also called DES.LEAQ.508
# B10: LEAQ.503 (other)
# chain: B1 chain with E385A, E387T, A389Q
# notes: also called DES.LEAQ.503
# B11: 13C (other)
# chain: B1 chain with A388G
# notes: N-terminus printed as SPVDI---; text (ELEG) and primer codon GAG give E
# B12: 7EVEA.458 (other)
# chain: B1 chain with L386V, G390P
# modifications: N-linked glycans added by Drosophila S2 cells; not carried by the letters
# notes: as for B2
# B13: 13C.438 (other)
# chain: B1 chain with A388N
# modifications: N-linked glycans added by Drosophila S2 cells; not carried by the letters
# notes: as for B2
# B14: 7EVEA.459 (other)
# chain: B1 chain with L386V, A388I, G390P
# notes: as for B2
# B15: 7EVEA.455 (other)
# chain: B1 chain with L386V, A388V
# modifications: N-linked glycans added by Drosophila S2 cells; not carried by the letters
# notes: as for B2
# Biological target: T3, thrombin (human, UniProt P00734 328-622)
# Test: heparin cofactor assay, HCA expt #2; ATIII titrated on 10 nM thrombin + 50 ug/ml UFH, chromogenic readout
# Experimental: (§1) After 3 minutes, the reactions were quenched with polybrene and chromogenic substrate S2238 (thrombin) or S2765 (fXa), and the initial rate of chromophore production (405 nm) recorded to obtain a measurement residual, uninhibited thrombin or factor Xa. IC50s were determined from plots of ATIII concentration vs. percent residual target enzyme activity.
row,IC50 [nM],Binder
1,550,B1
2,700,B2
3,> 1000,B3
4,600,B4
5,500,B5

# Biological target: T4, human thrombin (human, UniProt P00734 328-622)
# Test: thrombin inhibition rate in the absence of heparin
row,"Kapp, thrombin progressive [M⁻¹ s⁻¹]",Binder
1,3000,B6
2,3300,B7
3,4100,B8
4,4100,B9
5,3700,B10

# Biological target: T3, thrombin
# Test: heparin cofactor assay, HCA expt #4; ATIII titrated on 10 nM thrombin + 50 ug/ml UFH, chromogenic readout
# Experimental: as §1
row,IC50 [nM],Binder
1,> 1000,B11
2,> 1000,B12
3,> 1000,B13
4,> 1000,B14
5,> 1000,B15

# Biological target: T5, factor Xa (human, UniProt P00742 41-179; P00742 235-488, limits assumed)
# T5 construct: Active factor Xa has a light and a heavy chain; also called fXa
# Test: heparin cofactor assay, HCA expt #2; ATIII titrated on 10 nM fXa + 50 ug/ml UFH, chromogenic readout
# Experimental: as §1
# T5 sequence (P00742 41-179 limits assumed, form in doubt, chain 1 of 2): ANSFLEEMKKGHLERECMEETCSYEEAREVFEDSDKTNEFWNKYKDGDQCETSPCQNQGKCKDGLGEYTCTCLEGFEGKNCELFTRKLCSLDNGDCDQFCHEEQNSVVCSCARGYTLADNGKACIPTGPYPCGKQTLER
# T5 sequence (P00742 235-488 limits assumed, form in doubt, chain 2 of 2): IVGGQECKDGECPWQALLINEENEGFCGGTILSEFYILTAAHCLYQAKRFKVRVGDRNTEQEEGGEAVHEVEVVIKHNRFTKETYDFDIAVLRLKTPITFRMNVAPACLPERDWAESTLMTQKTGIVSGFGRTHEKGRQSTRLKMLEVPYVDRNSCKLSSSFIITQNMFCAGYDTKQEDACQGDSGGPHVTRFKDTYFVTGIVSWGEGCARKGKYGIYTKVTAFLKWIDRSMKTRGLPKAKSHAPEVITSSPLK
row,IC50 [nM],Binder
1,45,B1
2,34,B2
3,40,B3
4,30,B4
5,17,B5

# Biological target: T3, thrombin
# Test: cell-based or functional assay
rsd. IIa catG; CA expt #7; stg1 conc 200,rsd. IIa catG; CA expt #8; stg1 conc 200,rsd. IIa hne; CA expt #7; stg1 conc 200,rsd. IIa hne; CA expt #8; stg1 conc 200,rsd. IIa no add; CA expt #7; stg1 conc 200,rsd. IIa no add; CA expt #8; stg1 conc 200,Binder
5 % of activity without ATIII,19 % of activity without ATIII,4 % of activity without ATIII,25 % of activity without ATIII,5 % of activity without ATIII,14 % of activity without ATIII,B1
5 % of activity without ATIII,,4 % of activity without ATIII,,5 % of activity without ATIII,,B2
5 % of activity without ATIII,,14 % of activity without ATIII,,6 % of activity without ATIII,,B3
5 % of activity without ATIII,18 % of activity without ATIII,4 % of activity without ATIII,20 % of activity without ATIII,5 % of activity without ATIII,13 % of activity without ATIII,B4
5 % of activity without ATIII,30 % of activity without ATIII,4 % of activity without ATIII,12 % of activity without ATIII,5 % of activity without ATIII,8 % of activity without ATIII,B5

# Biological target: T5, factor Xa
# Test: cell-based or functional assay
rsd. Xa catG; CA expt #7; stg1 conc 200,rsd. Xa catG; CA expt #8; stg1 conc 200,rsd. Xa hne; CA expt #7; stg1 conc 200,rsd. Xa hne; CA expt #8; stg1 conc 200,rsd. Xa no add; CA expt #7; stg1 conc 200,rsd. Xa no add; CA expt #8; stg1 conc 200,Binder
3 % of activity without ATIII,1 % of activity without ATIII,3 % of activity without ATIII,2 % of activity without ATIII,3 % of activity without ATIII,2 % of activity without ATIII,B1
3 % of activity without ATIII,,3 % of activity without ATIII,,3 % of activity without ATIII,,B2
3 % of activity without ATIII,,3 % of activity without ATIII,,3 % of activity without ATIII,,B3
2 % of activity without ATIII,1 % of activity without ATIII,3 % of activity without ATIII,1 % of activity without ATIII,4 % of activity without ATIII,1 % of activity without ATIII,B4
2 % of activity without ATIII,1 % of activity without ATIII,3 % of activity without ATIII,1 % of activity without ATIII,4 % of activity without ATIII,2 % of activity without ATIII,B5

# Biological target: T5, factor Xa
# Test: heparin cofactor assay, HCA expt #4; ATIII titrated on 10 nM fXa + 50 ug/ml UFH, chromogenic readout
# Experimental: as §1
row,IC50 [nM],Binder
1,33,B11
2,250,B12
3,22,B13
4,75,B14
5,110,B15

# Biological target: human factor Xa (human, UniProt P00742 41-179; P00742 235-488, limits assumed)
# Test: cell-based or functional assay
# Chain of human factor Xa (P00742 41-179 limits assumed, chain 1 of 2): as the sequence (P00742 41-179 limits assumed, form in doubt, chain 1 of 2) above
# Chain of human factor Xa (P00742 235-488 limits assumed, chain 2 of 2): as the sequence (P00742 235-488 limits assumed, form in doubt, chain 2 of 2) above
IC50 fXa/UFH (HCA #5) [nM],IC50 fXa/UFH (HCA #6) [nM],"rsd Xa, no add (CA #51, stg 1 conc 200) [%]",Binder
12,19,1,B6
14,,0,B7
13,,,B8
19,,-1,B9
11,,1,B10

# Biological target: T4, human thrombin
# Test: cell-based or functional assay
IC50 IIa/UFH (HCA #5) [nM],IC50 IIa/UFH (HCA #6) [nM],"rsd IIa, no add (CA #51, stg 1 conc 200) [%]",Binder
16,18,1,B6
17,,1,B7
9,,,B8
18,,1,B9
13,,0,B10

# Biological target: T1, human neutrophil cathepsin G
# Test: cell-based or functional assay
"rsd IIa, catG (CA #51, stg 1 conc 200) [%]","rsd Xa, catG (CA #51, stg 1 conc 200) [%]",Binder
2,-1,B6
1,-1,B7
1,-2,B9
1,-2,B10

# Biological target: T2, human neutrophil elastase
# Test: cell-based or functional assay
"rsd IIa, HNE (CA #51, stg 1 conc 200) [%]","rsd Xa, HNE (CA #51, stg 1 conc 200) [%]",Binder
1,1,B6
1,1,B7
1,-3,B9
1,0,B10

# Biological target: T4, human thrombin
# Test: thrombin inhibition rate in the presence of heparin (HAH)
row,"Kapp, thrombin HAH [M⁻¹ s⁻¹]",Binder
1,1.1e+07,B6
2,6.1e+06,B7
3,1.1e+07,B8
4,1.1e+07,B9
5,1.6e+07,B10
